By IC50 is commonly meant the concentration at which inhibition is half-maximal. A low value points to inhibition by little substance. In general, Kd refers to the concentration at which binding is half-saturated.

T1: N-TRADD/C-TRAF2 interaction (Homo sapiens, UniProt Q12933)
T1 construct: The C-TRAF2 (residues 262-501) used in the instant HSQC titration experiment; initiator Met added before residue 262 (N); 6xHis (C); made in house; host or cells: C-TRAF2: baculovirus in 'Tini' cells; N-TRADD: E. coli BL-21
T1 sequence (Q12933 262-501): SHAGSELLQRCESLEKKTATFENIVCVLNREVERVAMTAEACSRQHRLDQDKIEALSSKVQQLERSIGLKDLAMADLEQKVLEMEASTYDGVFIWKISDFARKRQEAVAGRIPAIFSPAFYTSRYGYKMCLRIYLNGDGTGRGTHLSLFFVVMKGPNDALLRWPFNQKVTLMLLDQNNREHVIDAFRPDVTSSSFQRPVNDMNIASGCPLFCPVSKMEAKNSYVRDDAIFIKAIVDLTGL

T2: N-TRADD/C-TRAF2 binding (Homo sapiens, UniProt Q12933)
T2 construct: The C-TRAF2 (residues 262-501) used in the instant HSQC titration experiment; initiator Met added before residue 262 (N); 6xHis (C); made in house; host or cells: C-TRAF2: baculovirus in 'Tini' cells; N-TRADD: E. coli BL-21
T2 sequence (Q12933 262-501): T1 sequence (Q12933 262-501)

T3: N-TRADD (Homo sapiens, UniProt Q15628)
T3 construct: The polypeptide for N-TRADD (1-169) was overexpressed in BL-21 E. coli; His tag (C); made in house; host or cells: E. coli BL-21, vector pRSETB
T3 sequence (Q15628 1-169): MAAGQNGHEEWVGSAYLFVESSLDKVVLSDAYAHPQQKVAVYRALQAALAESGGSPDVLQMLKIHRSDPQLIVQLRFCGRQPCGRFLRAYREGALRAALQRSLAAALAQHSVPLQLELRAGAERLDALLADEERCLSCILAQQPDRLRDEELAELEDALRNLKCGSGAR

T4: C-TRAF2 (residues 262 to 501 of human TRAF2) (human, UniProt Q12933 262-501)
T4 construct: range 262-501; Expressed by baculovirus; Amine-coupled to a CM5 chip in the BIAcore experiments; also called C-terminal domain of TRAF2; C-TRAF2 (residues 262-501)
T4 sequence: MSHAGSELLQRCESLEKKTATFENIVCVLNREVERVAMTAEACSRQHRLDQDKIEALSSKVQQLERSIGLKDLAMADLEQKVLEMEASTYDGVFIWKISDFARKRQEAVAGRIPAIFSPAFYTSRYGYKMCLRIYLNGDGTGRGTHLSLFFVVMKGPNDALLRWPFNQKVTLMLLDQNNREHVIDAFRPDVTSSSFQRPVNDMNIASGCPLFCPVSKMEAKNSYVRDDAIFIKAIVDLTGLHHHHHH

B1: CD40-p1 peptide (YPIQET) (peptide)
peptide: YPIQET
notes: Peptide of McWhirter et al; also called CD40-pl; 6-mer peptide
B2: 13-mer peptide derived from CD40 (SNTAAPVQETLHG-OH) (peptide)
peptide: SNTAAPVQETLHG-OH
notes: Synthesised by Fmoc solid-phase methods; printed with a free C-terminus (-OH); also called CD40 peptide; CD40-derived peptide
B3: N-terminal domain of human TNFR-1 associated death domain protein (N-TRADD), residues 1-169, wild type (other)
chain: T3 sequence (Q15628 1-169)
notes: Expressed in E. coli BL-21; monomeric (>95%) by SEC-HPLC; 15N or 15N/13C labelled for NMR; also called N-TRADD (1-169); wild-type N-TRADD; not shown: His tag introduced after aa169
B4: N-TRADD D149A mutant protein (other)
chain: T3 sequence (Q15628 1-169) with D149A
notes: Single point mutant of the N-TRADD (1-169) construct; not shown: His tag after aa169 of the N-TRADD construct
B5: N-TRADD H65A mutant protein (other)
chain: T3 sequence (Q15628 1-169) with H65A
notes: as for B4
B6: N-TRADD I72A mutant protein (other)
chain: T3 sequence (Q15628 1-169) with I72A
notes: also called 172A (so in the source); not shown: His tag after aa169 of the N-TRADD construct
B7: N-TRADD Y16A mutant protein (other)
chain: T3 sequence (Q15628 1-169) with Y16A
notes: as for B4

For assay [1], the target named is T1, N-TRADD/C-TRAF2 interaction. The experiment in a line: BIAcore competition for binding of N-TRADD to C-TRAF2. The protocol:
(§1) C-TRAF2 and N-TRADD binding studies: The affinity of wild-type N-TRADD and C-TRAF2 was measured by surface plasma resonance using a BIAcore 2000 system (Pharmacia Biosensor AB). C-TRAF2 (residues 262-501) was purified and coupled to a sensor chip CM5 by amine coupling at pH=5.0 to get about 800, 1500 and 5500 response units on three different flow cells. A constant flow (20 μL/min) of purified N-TRADD protein in 10 mM Hepes, pH=7.4, 150 mM NaCl, 3.4 mM EDTA and 0.05% P20 surfactant at 8 different concentrations from 650 μM to 84 μM was applied over the protein coupled chip for 2 min to analyze the association. Binding constants were obtained from the BIAevaluation software.
In the instant studies, the interaction between a 13-mer peptide derived from CD40 (a longer version of CD40 -pl, with sequences SNTAAPVQETLHG (SEQ ID NO:2)) with C-TRAF2 was characterized, as well as its effect on the N-TRADD/C-TRAF2 interaction. […] In addition the peptide was also able to compete for the binding of N-TRADD to C-TRAF2, with an IC50 of ˜1 mM.
In addition to this 13-mer peptide, the effect of the CD40-p1 peptide (McWhirter et al, Proc. Natl. Acad. Sci. USA 96: 8408-8413, 1999) on the interaction between N-TRADD and C-TRAF2 was also evaluated. […]
In general terms: In SPR one partner is held on a chip, and binding of the other changes the refractive index at the surface.

Another assay addresses T2, N-TRADD/C-TRAF2 binding. Nature of the assay: 1H-15N HSQC NMR study of N-TRADD/C-TRAF2 binding, inhibition by peptide. The conditions noted are these: peptide 3 mM; N-TRADD and C-TRAF2 110 μM each; data not shown. The protocol: (§2) NMR Spectroscopy: All NMR spectra were collected on a 600 MHZ Varian Unity Plus spectrometer. For the backbone assignments, HNCACB and HN(CO)CACB experiments (Clore and Gronenborn, Methods Enzymol. 239: 349-363, 1994; Muhandiram, et al., J. Magn. Reson. B103: 208-216, 1994) were performed. To confirm the type of amino acid assignment, C(CO)NH-TOCSY (Grzesiek, et al., J. Magnetic Resonance, B101: 114-119, 1993) was used. Side chain resonances were assigned from the following experiments: HBHA(CO)NH (Clore and Gronenborn, Methods Enzymol. 239: 349-363, 1994), HC(CO)NH-TOCSY (Grzesiek, et al., J. Magnetic Resonance. B101: 114-119, 1993) for the ^15N/^13C sample in 90% H2O, 10% D2O, HCCH-TOCSY for the ^15N/^13C-labeled sample in D2O, and ^15N-TOCSY-HSQC with the uniformly labeled ^15N protein.
The ^1H-^15N HSQC of N-TRADD was used as a tool to map the binding interface with C-TRAF2, since the chemical shifts of contact residues will be perturbed upon complex formation. […] The C-TRAF2 (residues 262-501) used in the instant HSQC titration experiment (at 120 μM) is also a trimer, as determined by size exclusion chromatography. […] N-TRADD Mutagenesis and interactions between C-TRAF2 and N-TRADD: In order to further characterize the amino acids in N-TRADD that are involved in C-TRAF2 recognition, site directed mutants of N-TRADD were prepared and evaluated for their ability to bind C-TRAF2. […]

Assay [2] deals with T3, N-TRADD. Nature of the assay: 1H-15N HSQC of N-TRADD with addition of peptide. It is filed as binding. The protocol:
as §2
Inhibition by the CD40-derived peptide was also observed in the ^1H-^15N HSQC studies of N-TRADD/C-TRAF2 binding. At stoichiometric concentrations of N-TRADD and C-TRAF2 (110 μM each), HSQC peaks for N-TRADD have broadened out due to binding to C-TRAF2 as described above.

Assay [3] deals with T3, N-TRADD. The experiment in a line: BIAcore experiment, CD40 peptide with N-TRADD. It is filed as binding. The conditions noted are these: final peptide concentration approximately 15 mM; data not shown.
Assay [4] addresses T4, C-TRAF2 (residues 262 to 501 of human …). The experiment in a line: inhibition of the N-TRADD/C-TRAF2 interaction; competitor N-TRADD.
Assay [5] has the same target. The experiment in a line: BIAcore (SPR).
For assay [6] the target is unchanged. Nature of the assay: BIAcore competition; competitor N-TRADD.
The target of assay [7] is B3. The experiment in a line: 1H-15N HSQC NMR.
The target in assay [8] is T4, C-TRAF2 (residues 262 to 501 of human …). The experiment in a line: BIAcore (SPR), C-TRAF2 amine-coupled to CM5 chip, N-TRADD in flow. The protocol:
as §1, with “µL/min)” for “μL/min)”, “µM” for “μM”

Assay [9] has the same target. The experiment in a line: BIAcore surface plasmon resonance, C-TRAF2 (printed TF2-C) coupled to the CM5 chip, N-TRADD mutant in the flow.
The target is the same in assay [10]. The experiment in a line: BIAcore (SPR), C-TRAF2 on chip. The protocol:
as §1, with “µL/min)” for “μL/min)”, “µM” for “μM”

Changes are numbered by the printed parent chain. Numbers in names are those of the source. Ends that are not written are not given here.

Consider “SNTAAPVQETLHG-OH [13-mer peptide derived from CD40, SNTAAPVQETLHG-OH]”, for which, in assay [1], the “inhibition of the interaction between N-TRADD and C-TRAF2 (in words)” value is given as “inhibited”. The “effect on 1H-15N HSQC spectrum of N-TRADD broadened by C-TRAF2” value at N-TRADD/C-TRAF2 binding is on record as “restored the ^1H-^15N HSQC spectrum of N-TRADD alone”. In addition, at N-TRADD [2], the “interaction between N-TRADD and peptide (changes in 1H-15N HSQC of N-TRADD)” value is “No interaction”. In addition, the “interaction between peptide and N-TRADD by BIAcore” value at N-TRADD [3] is on record as “lack of interaction”.
Take B1: the IC50 in assay [4] was approximately 200 µM.
With B2, in [5], the Kd is approximately 1000 µM. Besides, in assay [6], the IC50 was approximately 1000 µM. The binding result in assay [7] is recorded as “no binding”.
In turn, B3 came in with a Kd in assay [8] of 6 µM.
Consider B4, for which, in assay [9], the binding result is reported as “binds”.
On to B5, for which, in assay [9], the binding result is recorded as “binds”.
Same read-out and setting: the value for B6 was “binds”.
Turning to B7, the “fold reduction in C-TRAF2 affinity against wild-type N-TRADD” value in [10] is approximately 16 fold.
